Laboratory results: the supplement of paper PMC11865577

Assays:
Test in all cases: pull-down binding Z-score (relative to library population); higher = stronger binding
[1] = test system: TO-N3-2 (biotin conjugate); settings: RNA library: Library-2
Summary of the method: (§1)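 An RNA library (1 μg) carrying a Cy5 or Cy3 end label was heat-folded in phosphate/NaCl/KCl buffer, then incubated for 60 min at 25 °C with streptavidin beads loaded with 100 pmol of biotin-conjugated small molecule. The beads were washed three times, and bound RNA was released in hot SDS and hybridised to a DNA barcode microarray for 20 h at 55.5 °C. Each binding score was derived by subtracting the signal from beads without compound, averaging the barcoded replicate probes after removing the highest and lowest, and expressing the result as a Z-score relative to the library mean and standard deviation.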

TO-N3 (biotin conjugate) = settings: RNA library: Library-2
Summary of the method: as §1

[2] = test system: TO-3-N3 (biotin conjugate); settings: RNA library: Library-2
Summary of the method: as §1

[3] = test system: TO-3-N3-2 (biotin conjugate); settings: RNA library: Library-2
Summary of the method: as §1

[4] = test system: G-clamp-N3 (biotin conjugate); settings: RNA library: Library-1 (pre-miRNA loops + repeats)
Summary of the method: as §1

Sequence	pull-down binding Z-score [1]	pull-down binding Z-score (TO-N3 (biotin conjugate))	pull-down binding Z-score [2]	pull-down binding Z-score [3]	pull-down binding Z-score [4]
AGAUCCCCUGUUAGAGACGGGCC [hsa-mir-6840]	0.991	0.562	0.114	0.351	-1.25
AGAUCCUGUCUUUCGUAAUCAGCAGCU [hsa-mir-222]	0.228	0.344	0.279	0.00116	-0.246
AGAUCUAUGUCAUAUAUACAGAUAU [hsa-mir-3924]	-0.356	0.742	0.902	0.268	-0.51
AGAUCUGUCUCUGAUUGUUUCCAAGAUCU [hsa-mir-6888]	0.0817	0.136	0.132	0.0544	-0.781
AGAUGAAAUGCCUUUGAUUU [hsa-mir-3658]	-0.505	-0.715	-0.497	-0.388	-1.49
AGAUGAGGGUGUCGGAUCAACU [hsa-mir-193a]	0.801	0.579	0.135	0.248	1.51
AGAUGAGUUUAUGUUUUAUCCAACU [hsa-mir-193b]	-0.135	-0.416	-0.608	-0.228	-1.8
AGAUGUGUUUCCAUUCCACUAUCAUAAU [hsa-mir-365a]	-0.292	-0.0846	-0.141	-0.128	-0.718
AGCAAGGUGCGUCGUAUCUUGCU [hsa-mir-4804]	-0.798	-0.702	-0.499	-0.581	0.816
AGCACUUUCUGUUGUCUGAAAGAAAAGAAAGUGCU [hsa-mir-516a-1_516a-2]	-0.0183	0.686	0.399	0.0524	1.47
AGCACUUUCUGUUUUGUGAAAGAAAAGAAAGUGCU [hsa-mir-516b-1]	-1.2	-1.32	-0.893	-0.64	-0.472
AGCACUUUGUGUUUUGUGAAAGAAAGUGCU [hsa-mir-516b-2]	-0.576	-0.882	-0.647	-0.0767	2.82
AGCAGUACCAGACGGUUCUGUGG [hsa-mir-3198-1]	0.525	0.0664	-0.321	-0.0913	-0.487
AGCAGUACCAGAUGGUUCUGUGG [hsa-mir-3198-2]	-0.167	-0.0604	-0.0816	-0.262	-1.54
AGCAUCUGAAUGGGUACAGUUGUUGU [hsa-mir-6818]	-0.225	0.0834	0.0263	-0.0469	-0.405
AGCAUGCACUUAAUGUGGGUGUAUGU [hsa-mir-668]	-0.105	0.184	0.334	-0.205	0.305
AGCCAAAAUCACCAGGGA [hsa-mir-4534]	0.563	0.259	-0.0499	0.118	0.0802
AGCCACUGCGGUCGACCAUGACCUGGA [hsa-mir-619]	0.721	0.578	0.401	0.0618	-0.783

Sequence	pull-down binding Z-score [1]	pull-down binding Z-score (TO-N3 (biotin conjugate))	pull-down binding Z-score [2]	pull-down binding Z-score [3]	pull-down binding Z-score [4]
AGCCCUGGGCUCCUCAGCAAACCUACUGGAU [hsa-mir-3174]	0.975	0.857	0.494	0.3	-1.41
AGCCCUGUUGUUGUAAGAUAGUGU [hsa-mir-550a-1]	0.346	-0.00359	-0.325	-0.124	-0.249
AGCCCUGUUGUUGUCAGAUAGUGU [hsa-mir-550a-2]	0.179	0.216	0.198	0.21	-0.331
AGCCUCCAAACCUGUAGACAGGGUCAUGCAGUACUAGGGGCGAG [hsa-mir-4478]	0.966	0.546	-0.0187	0.175	-0.233
AGCCUUCUAUUAUGCCCAGACAGGGCCACCAGAGGGCU [hsa-mir-4448]	-0.254	-0.746	-0.471	-0.619	-0.731
AGCGCGAAAGU [hsa-mir-1539]	0.55	0.054	-0.0926	0.0743	0.0302
AGCGCGGCGACCGUAACUCCU [hsa-mir-1237]	1.65	0.724	0.152	0.313	-0.629
AGCUGGCUGAAGGGCAGAAGGGAACUGUCCUUCAGCCAGAG [hsa-mir-4487]	-0.122	-0.243	-0.276	-0.156	-0.139
AGCUGGGGCCGGGU [hsa-mir-4281]	1.27	1.63	1.37	0.821	0.118
AGCUGGGUGGAGGCAGAGCU [hsa-mir-4291]	1.4	2.34	2.46	1.23	1.95
AGCUGUGAAAGUCCUAGCU [hsa-mir-1256]	3.94	2.17	0.994	0.221	0.661
AGCUGUGUUUUCUGACUCAGUCAUAAU [hsa-mir-365b]	-0.505	-0.26	-0.26	-0.263	-0.674
AGCUGUUGAACUGGGAACCUGCU [hsa-mir-31]	0.794	0.368	-0.162	-0.00735	0.781
AGCUGUUGGCCAUGGCGACAACACCU [hsa-mir-6742]	0.561	-0.246	-0.508	-0.322	0.213
AGCUUCUACGUCAUUCAGCACUUGCU [hsa-mir-5706]	-0.31	-0.601	-0.62	-0.211	-0.819
AGCUUCUUUAUAAGAAGAGGAAACU [hsa-mir-3923]	-0.5	-0.151	0.147	0.00803	-0.169
AGCUUUAUGUAUUCUGAAGUUAUUGAAAAUAAGAGCU [hsa-mir-3140]	-0.911	-1.1	-0.877	-0.254	-0.628
AGGACACAGGCUGGCACUGAGGUCCC [hsa-mir-6887]	1.41	0.639	0.0768	-0.0807	-0.394
